What was measured:
[1] = biological target: mouse CD137, cell-surface (mouse, UniProt P20334 24-256); assay: cell-based or functional assay
[2] = biological target: human PD-L1, cell-surface (human, UniProt Q9NZQ7 19-290); assay: cell-based or functional assay
hPD-L1-rCD4-His = biological target: T1, hPD-L1-rCD4-His (human); assay: SPR, culture supernatants
T1 construct: also called human PD-L1-rCD4-His; hu-PD-L1-rCD4-His
T1 sequence (chain, as listed by the source): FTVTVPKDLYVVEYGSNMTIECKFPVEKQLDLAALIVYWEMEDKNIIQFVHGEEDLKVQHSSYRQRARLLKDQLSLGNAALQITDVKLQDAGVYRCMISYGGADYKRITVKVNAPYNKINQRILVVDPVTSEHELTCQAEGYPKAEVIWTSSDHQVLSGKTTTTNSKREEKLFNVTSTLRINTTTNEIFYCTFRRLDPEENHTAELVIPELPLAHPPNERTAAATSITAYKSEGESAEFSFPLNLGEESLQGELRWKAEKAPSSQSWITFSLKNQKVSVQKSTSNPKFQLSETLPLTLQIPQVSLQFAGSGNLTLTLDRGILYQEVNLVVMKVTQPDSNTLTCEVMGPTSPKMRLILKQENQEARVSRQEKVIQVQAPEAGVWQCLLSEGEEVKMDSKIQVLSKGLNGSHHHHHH

Sequence of mouse CD137, cell-surface (P20334 24-256): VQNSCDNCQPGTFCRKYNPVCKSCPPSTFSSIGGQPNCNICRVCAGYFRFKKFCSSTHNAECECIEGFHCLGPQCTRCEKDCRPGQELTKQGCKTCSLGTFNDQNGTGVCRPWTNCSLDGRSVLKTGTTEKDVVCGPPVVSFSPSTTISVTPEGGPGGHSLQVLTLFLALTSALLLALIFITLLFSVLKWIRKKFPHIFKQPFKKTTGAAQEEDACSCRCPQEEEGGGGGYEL
Sequence of human PD-L1, cell-surface (Q9NZQ7 19-290): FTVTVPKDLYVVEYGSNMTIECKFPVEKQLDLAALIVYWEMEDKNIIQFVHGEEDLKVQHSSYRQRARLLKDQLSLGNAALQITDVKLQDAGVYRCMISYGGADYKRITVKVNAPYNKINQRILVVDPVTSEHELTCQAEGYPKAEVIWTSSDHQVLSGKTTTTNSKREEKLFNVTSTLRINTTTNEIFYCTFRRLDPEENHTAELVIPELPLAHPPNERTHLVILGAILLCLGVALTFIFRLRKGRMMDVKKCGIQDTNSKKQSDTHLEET

Binder | binding result (hPD-L1-rCD4-His) | further results
FS22m-063-AA/HeID1.3 (bispecific antibody, human IgG1, kappa, L234A L235A) heavy: QVQLQESGPGLVRPSQTLSLTCTVSGSTFSGYGVNWVRQPPGRGLEWIGMIWGDGNTDYNSALKSRVTMLVDTSKNQFSLRLSSVTAADTAVYYCARERDYRLDYWGQGSLVTVSSASTKGPSVFPLAPSSKSTSGGTAALGCLVKDYFPEPVTVSWNSGALTSGVHTFPAVLQSSGLYSLSSVVTVPSSSLGTQTYICNVNHKPSNTKVDKKVEPKSCDKTHTCPPCPAPEAAGGPSVFLFPPKPKDTLMISRTPEVTCVVVDVSHEDPEVKFNWYVDGVEVHNAKTKPREEQYNSTYRVVSVLTVLHQDWLNGKEYKCKVSNKALPAPIEKTISKAKGQPREPQVYTLPPSRDEPYWSYVSLTCLVKGFYPSDIAVEWESNGQPENNYKTTPPVLDSDGSFFLYSKLTVMNYRWELGNVFSCSVMHEALHNHYTQKSLSLSPG light: DIQMTQSPASLSASVGETVTITCRASGNIHNYLAWYQQKQGKSPQLLVYNAKTLADGVPSRFSGSGSGTQYSLKINSLQPEDFGSYYCQHFWSTPRTFGGGTKLEIKRTVAAPSVFIFPPSDEQLKSGTASVVCLLNNFYPREAKVQWKVDNALQSGNSQESVTEQDSKDSTYSLSSTLTLSKADYEKHKVYACEVTHQGLSSPVTKSFNRGEC | – | Emax (pg/ml), mIFN-γ release, OT-1 CD8+ T cell activation assay (EC50 n/a) [1]: 3850 pg/mL
G1/280_02_G02 (antibody, human IgG1, V domains shown) VH: EVQLVQSGAEVKRPGASVKVSCKASGYTFTSYGISWVRQAPGQGLEWMGWISAYNGNTNYAQKLQGRVTMTTDTSTSTAYMELRSLRSDDTAVYYCARDLFPTIFGVSYYYYWGQGTLVTVSS VL: QSALTQPASVSGSPGQSITISCTGTSSDVGGYNSVSWYQQFPGKAPKLMIFEVTNRPSGVSDRFSGSKSDNTASLTISGLQAEDEAEYYCSSFKRGSTLVVFG | – | EC50, luciferase, Jurkat-NFAT PD-1 / PD-L1 cell co-culture assay [2]: 4.2 nM

Now from value to binder, other results behind:

binding result (hPD-L1-rCD4-His) | Binder | further results
binds | G1/929_01_A08 (antibody, IgG1, V domains shown, IgG1 without LALA; SGGT variant of G1/894_08_E05, became G1-AA/E05v2 with LALA) VH: EVQLVQSGAEVKRPGASVKVSCKASGYTFTSYGISWVRQAPGQGLEWMGWISAYSGGTNYAQKLQGRVTMTTDTSTSTAYMELRSLRSDDTAVYYCARDLFPTIFGVSYYYYWGQGTLVTVSS VL: DIQMTQSPSTLSASVGDRVTITCRASQSISGRLAWYQQKPGKAPNLLIYEASNLESGVPSRFSGSGSGTEFTLTISSLQPEDFATYYCQQSYSTPRVTFGQGTKVEIK | –
binds | G1/929_01_A11 (antibody, IgG1, V domains shown, IgG1 without LALA) VH: EVQLVQSGAEVKRPGASVKVSCKASGYTFTSYGISWVRQAPGQGLEWMGWISAYSGGTNYAQKLQGRVTMTTDTSTSTAYMELRSLRSDDTAVYYCARDLFPTIFGVSYYYYWGQGTLVTVSS VL: DIQMTQSPSTLSASVGDRVTITCRASQSISGRLAWYQQKPGKAPNLLIYEASNLESGVPSRFSGSGSGTEFTLTISSLQPEDFATYYCQQSYSWPRTFGQGTKVEIK | –
